In assay [1] the target is Dscam 7.13.25 isoform. Put plainly: AlphaScreen or HTRF. For orientation: In Alpha technology, singlet oxygen from a donor bead excites a nearby acceptor bead.
The target of assay [2] is T1, Ptp10D-AP (Drosophila, UniProt P35992 43-1197).
T1 sequence (looked up): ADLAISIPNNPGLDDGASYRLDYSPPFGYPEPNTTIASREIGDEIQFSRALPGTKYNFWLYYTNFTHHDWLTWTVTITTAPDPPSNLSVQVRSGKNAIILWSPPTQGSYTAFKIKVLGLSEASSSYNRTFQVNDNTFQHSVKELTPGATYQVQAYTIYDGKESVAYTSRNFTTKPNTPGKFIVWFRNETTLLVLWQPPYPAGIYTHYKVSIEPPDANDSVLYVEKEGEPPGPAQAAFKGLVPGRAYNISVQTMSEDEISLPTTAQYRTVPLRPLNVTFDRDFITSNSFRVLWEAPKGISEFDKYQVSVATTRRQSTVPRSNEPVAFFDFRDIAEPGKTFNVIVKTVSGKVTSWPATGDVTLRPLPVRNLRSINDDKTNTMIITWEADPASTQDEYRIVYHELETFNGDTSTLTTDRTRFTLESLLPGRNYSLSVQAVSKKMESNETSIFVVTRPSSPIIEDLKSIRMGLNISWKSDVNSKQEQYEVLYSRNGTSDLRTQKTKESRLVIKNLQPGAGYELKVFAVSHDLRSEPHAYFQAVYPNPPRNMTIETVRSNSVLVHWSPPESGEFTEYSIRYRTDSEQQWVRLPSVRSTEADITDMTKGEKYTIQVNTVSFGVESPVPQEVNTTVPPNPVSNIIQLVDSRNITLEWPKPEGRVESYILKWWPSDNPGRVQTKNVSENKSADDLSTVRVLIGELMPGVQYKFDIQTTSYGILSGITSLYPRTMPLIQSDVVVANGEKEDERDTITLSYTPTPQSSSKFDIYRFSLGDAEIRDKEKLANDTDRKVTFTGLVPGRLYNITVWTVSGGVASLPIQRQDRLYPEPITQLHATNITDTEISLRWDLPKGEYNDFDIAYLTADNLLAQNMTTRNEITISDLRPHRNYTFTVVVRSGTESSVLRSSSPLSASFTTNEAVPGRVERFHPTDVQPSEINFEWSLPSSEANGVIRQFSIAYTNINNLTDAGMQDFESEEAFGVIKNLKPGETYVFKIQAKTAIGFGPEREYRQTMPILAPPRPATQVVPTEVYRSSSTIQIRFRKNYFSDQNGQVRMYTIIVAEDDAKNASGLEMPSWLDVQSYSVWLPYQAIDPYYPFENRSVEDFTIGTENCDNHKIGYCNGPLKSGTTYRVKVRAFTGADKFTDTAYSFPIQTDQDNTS
In words: AlphaScreen or HTRF.

For the molecule Dscam 7.13.25 isoform (natural protein), the fold signal of homophilic binding over heterophilic binding of 7.13.25 to 7.8.25 in assay [1] stood at 178 fold.

B1: Sas-Fc (Fc fusion, Drosophila, UniProt Q04164 42-1635, looked up)
chain: APAGEDAAATTMPPLDTTTDAPDAVAATTTPATTAAEQSSSISSITTEAADGSTTSTTTTTEAANKSNATETDFTTNVPVASSLPEETSVRSTSIEPITSTEPTTTPRQETEGPDQHMVFSNTEPDQSHIQHIPLRDEHAESSGADDATTEMQRQREQDQQQNELNQISNEQDDVVKDLNNFRHPATLITASNSNSEENVEIESDKQVETTTTAVPAAATSTSTEATGTPPTGTPATSTSTVPNEREEDPYHVHILSENHDRLAEHEDYQMLSTSTEESSTTSTTSTTNSTTESGIVAGIVVSQENKATAEPSTATESTSISTSTTTAATAATSTTSRARAMHMNDPEDEAATTIMPDSESVPVINIVEGQHMLQQEDQKDEEEEGVVKESESSSTTEASTTTTEPSPFVAFAGEGRSAGGGNDIELFLHHNGSTHEQLMDLSDVSMDGDQNEGSSKTESSTTSTTTTTAQPETEMPKIVEITASGDTMQRECLANNKSYKHGELMERDCDERCTCNRGDWMCEPRCRGLSYPRGSQRSMANPNCLEKMVEEDECCRVMECSEPQLEPTVVATEGAAPSTNGTGESAVTLPTTDDEATPKPRTDCHYNSGVYKFRERLEIGCEQICHCAEGGVMDCRPRCPERNHTRLDKCVYVKDPKDVCCQLELCDVTLDDHEQQPTPLQSNNNEDPEEIDPFRFQEQARDAGGAKPTCTFKGAEYDVGQQFRDGCDQLCICNEQGIHCAKLECPSNFGLDVQDPHCIRWEPVPADFKPSPPNCCPESMRCVDNGTCSYQGVQIENWSPVPANLTGCDQHCYCENGRVECRAACPPVPALPPADLPCHPALARLLPIPDDECCKHWMCAPQIPKIGGAGQDEETEATSTHSSIPANETTTTTATANKSTSIPSKVPQIKKDEEKRPPASGAFYPTLDGKPPKSIGGLGIFEKPEKPEKAHKKVQHQQQQHQQQEQQEQQQHQNDVIFDGDRTEEQEEPLPPNGGFVPFQFGQQHPHQPHLGPYGFYNPVKPVYEDYNPYEPYDINPNGTPQGKPPPVPTSQSDLFNILGAEQPGHPVHPGHGGPPRIHPGQTQKDNHNLGPQVRIEQILQHLQQTVPGGPPPPPPHQQHQSLTPQLHPQQQQISQQHPGHYVPIVHSGVPPPPPGHGIAIVDGQTVAYESYPVIPGLGVPQHHPQQHQTTPQQHLQQTILPSSSTTSGLSTQASEHSLHQNQGKLAKQQQSGANNLQPDIEVHTLEAIDPRSIRIVFTVPQVYVNLHGRVELRYSNGPSNDTSTWEQQIFAPPEDLIATSQMEFDLPSLEPNSLYKVKITLILRDLNSQPTSSIYTVKTPPERTITPPPPFPDYRPDFQDIFKNVEDPELTVSETNASWLQLTWKKLGDDQMEYVDGVQLRYKELTGMIYSSTPLIHRTLTSYTIQNLQPDTGYEIGLYYIPLAGHGAELRAGHMIKVRTAQKVDVYGFDVTVNVTKVKTQSVEISWNGVPYPEDKFVHIYRAIYQSDAGKEDSSVFKVAKRDSTTGTLIMDLKPGTKYRLWLEMYLTNGNTKKSNVVNFITKPGGPATPGKTGKLLTAGTDQPVGDYYGPL
Consider B1, for which the “signal-to-background ratio (Sas-Fc::10D-AP vs. Sas-Fc::69D-AP or Sas-Fc::blank)” value in assay [2] was around 6 fold.

For the origin of these results see paper PMC3683152 (Neuron, 2013).
